Measured values published in the DeepSol protein solubility set.

test: soluble on expression in E. coli; label from the status in PepcDB or PDB records

**Q.** Which “soluble on expression in E. coli” value does the source give for “VLTDIQIAQSCKMKPITQVAAELGIDEEELELYGKYKAKLSDKLWERVKDRPDGKLVLVTAINPTPAGEGKTTTTVGLGQAMARIGKKAVIALREPSLGPVMGIKGGAAGGGYSQVVPMEDINLHFTGDMHAITAANNLLSAAIDNHIQQGNELNIDVRQIIWKRAMDMNDRALRNIVVGLGGKANGVPREDGFQITVASEVMAVLCLSTGLMDLKERLGRILIGYTYDGKPVFAKDLKVNGAMALLLKDAIKPNLVQTLENTPAIVHGGPFANIAHGCNSIVATRLGLKLADYCITEAGFGADLGAEKFFNIKCRYAGLKPDLVVLVATIRALKYNGGVKKENLGIENLPALEKGFVNLEKHIENIRKFQVPLLVAINHFDTDSEAEIEYVKNRCKALNVEVAFSDVFSKGSEGGIELAEKVVKLTETQKSNFKPLYDVNLSIREKIEIIAREIYGADSVNILPAAERAIKKIEELKMDKLPICVAKTQYSLSDDPTLLGRPQGFVITVREIKLSSGAGFIVAITGDIMTMPGLPKVPAAEKIDIDENGVITGLF” here?
**A.** soluble

**Q.** For “VMGKRYVATPQQSQWEMVVNTPLECQLVHPIPSFGDAVFSSRANKKINLDFELKMRRPMGETRNVSLISMPPPWRPGEHADRITNLKFFKQFDGYVGGQTAWGILSELEKGRYPTFSYQDWQSRDQRIEVALSSVLFQNKYNAFSDCISNLLKYSFEDIAFTILHYERQGDQLTKASKKRLSQIADYIRHNQDIDLVLVATYTDSTDGKSASQSLSERRAESLRDYFQSLGLPEDRIQVQGYGKRRPIADNGSPIGKDKNRRVVISLGRTQVHHHHHH”, which “soluble on expression in E. coli” value is on record?
**A.** soluble

**Q.** Which “soluble on expression in E. coli” value does the source give for “VPGILMCEIFIRANQRSYSVQARSLRLHGVATSVRLEQLFWDVLEEIAARDGMRVTQLIERLYDELVQYRGEAANFTSFLRVCCLRYQVLQAEGRIPADATVPIRSLDAQAVLRGLPANLYDSR” here?
**A.** not soluble

**Q.** For “VPLEHFNVPYEDSFFPAVRVKFQGSTKTLIFHGGYDSCLEEMLPFFSAFENLGYDIIAFEGPGQGMALKNGLKFIHNWERPVSALLDYFNLNEVTILGCSWGGYFCLRAAAFEKRIKAAIVYDIFYCGMDVIGMKNKEMRYELEKLLNNNEKDKINELMYSKMKADIDFNWKISKGMDNTMTYTPYDFLKAIQLHTMDGIEELIDQDVLLLAGEEDQYVPIEAMKLFEDRLVNANITKKIFTKETGGEQHCQVGRIDLAFDEIKKFLVR”, which “soluble on expression in E. coli” value is on record?
**A.** not soluble

**Q.** With “VPRIAEVRDAAEPSSEEQRARHVRMLEAAIELATEKELARVQMHEVAKRAGVAIGTLYRYFPSKTHLFVAVMVDQIDRMGVGFKKSAPPGESPQDAVYNVLVRATRGLLRRPALSTAMIQSTSTANVASVPDAGKVDRAFRQIMLDAAGIEHPTEEDLTALRLLVQLWFGVIQSCLNGRVSIPDAESDIRRACDLLLVNLSHR” as the sequence, how does the “soluble on expression in E. coli” value read?
**A.** soluble

**Q.** With “VQSMSDESEKNSASPDAMRVGTRVLVRRQPEAATGVIVEDYAELTDTAGRGHDWAPVHRWAVALDDGRLVFADTEDLTVDIGTVDSE” as the sequence, how does the “soluble on expression in E. coli” value read?
**A.** not soluble

**Q.** Which “soluble on expression in E. coli” value does the source give for “VRNSPDLLDEIRAGITVHARPDLQTPIDGLLLSKVTAESAAPEYSLTEPLLVIMTQGGKRLLLGDRLYEYRAGQCLVVTASVPVTGHYIDISEGAPSLAMGLVLRPAAIAALVLQAPTERWSRGAAGVPAIETGDADVHLLDAAARMLRLLDHPADAPVLAPLIEQEILWRLLTGPHGSTIRQIGMADSDLAHVSRAIHWIRDNYSEPMRIDDLARLSSMSASAFHRHFRAVTAMSPLQYQKRIRLQHARSMLVAHPGDVAGVGHHVGYDSPSQFNREYRRLFGASPGKDAHGLRGNTALSDTGPLP” here?
**A.** not soluble

**Q.** Which “soluble on expression in E. coli” value does the source give for “VRQKGIDIIFMLDISNSMLARDTAPDRLTHAKTELLQISRRLGDGRKALLLFAGTPVVQCPLTDDEEDFEILLDMAAPELITTQGTDYRRAFDAALKLTNSGGELSSNETVLVLASDGEDHGNDLGDIATAMKTRGVHLHVIGVGGVQPVPIPMQGGPKRDQQGKIVLTSFKPEPLASLIKTAKGKFYYSRPDAPVHDAVADDIAAEAAEA” here?
**A.** not soluble

**Q.** With “VSSGAGSDATGAGGVHAAGSGDRAVAAAVERAKATAARNIPAFDDLPVPADTANLREGADLNNALLALLPLVGVWRGEGEGRGPDGDYRFGQQIVVSHDGGDYLNWESRSWRLTATGDYQEPGLREAGFWRFVADPYDPSESQAIELLLAHSAGYVELFYGRPRTQSSWELVTDALARSRSGVLVGGAKRLYGIVEGGDLAYVEERVDADGGLVPHLSARLSRFVG” as the sequence, how does the “soluble on expression in E. coli” value read?
**A.** soluble

**Q.** For “VTDDLEPTAPAAAAPEPEVKGIDLARRALEEARAAAKASGKSVGQGRRSGTGVRALRARRRRGWSGPGPDDRDPQPFGALTNAIAKQRGWSPKVSEGTVLGRWVQVVGEDIAAHAEPTGLRDGILSVSAESTAWATQLRMMQSQILAKIAAAVGDGVVKSLRITGPTAPSWRKGERHIRGRGPRDTYG”, which “soluble on expression in E. coli” value is on record?
**A.** not soluble

**Q.** For “VTTSSDPSSPVPQEDLDAVAAQLGREPRGVLEIAYRSPDGTPGVVKTAPKLPDGTPFPTLYYLTDPRLTAEASRQESAGVMREMTERLGQDPELAAAYLRAHESYLAERDAIEPLGTDFTGGGMPERVKCLHVLMAHSLAKGPGVNPLGDESVALAASAAGGKLRGTAIPADWPGIDDVESPEQ”, which “soluble on expression in E. coli” value is on record?
**A.** not soluble

**Q.** For “VVQGTVKPHASFNSREDAETLRKAMKGIGTDEKSITHILATRSNAQRQQIKTDYTTLFGKHLEDELKSELSGNYEAAALALLRKPDEFLAEQLHAAMKGLGTDKNALIDILCTQSNAQIHAIKAAFKLLYKEDLEKEIISETSGNFQRLLVSMLQGGRKEDEPVNAAHAAEDAAAIYQAGEGQIGTDESRFNAVLATRSYPQLHQIFHEYSKISNKTILQAIENEFSGDIKNGLLAIVKSVENRFAYFAERLHHAMKGLGTSDKTLIRILVSRSEIDLANIKETFQAMYGKSLYEFIADDCSGDYKDLLLQITGH”, which “soluble on expression in E. coli” value is on record?
**A.** soluble

**Q.** Which “soluble on expression in E. coli” value does the source give for “WGYQTDGRFQNFDEINTYPIQNGDNGNSKELPGDYILKDVNGDGVVNDLDKTPLFWSGSPLIHYGFNVEASWKNFDFYALFQGSALYTVQFDEVYAKMLCFKGGNTPEYFYDRWHLSDPYDANSEWIPGEWPAIRLEQDMGSFYTRDSQIWRKNASYLRLKTIEIGYTFSPRLMHKLGIGSLRIYANGNNLFTVCDPFVKAFDPEKIEGDYSAGLNYPLNKSFNFGLTLNF” here?
**A.** not soluble

**Q.** For “WIRTGDGVRLRTVVWPEGAAGTVLIFSGRTEYAEKYGPAAEALRRRGFASATLDWRGQGLSDRSLRDPLVGHVDDFASYQQDVTAFVAALRAQGLPEPFHLLAHSMGGCIGLRALHEGLPVRAACFSAPMWGIRVHAALRIVAAALGALARATGLGHRYVPGTGTRSYVATAAFDTNVLTRDPEMFAWMQEQLVQAPELGLAGPSLDWLRAAFEETARLKRLPAPDLPALCIVGSAEKVVDLEEIQRRMEGWGRGELQIVPGAEHEVMMDRPEVRDAFFDAA”, which “soluble on expression in E. coli” value is on record?
**A.** not soluble

**Q.** Which “soluble on expression in E. coli” value does the source give for “WLLAELTYRCPLQCPYCSNPLDFARQDKELTTEQWIEVFRQARAMGSVQLGFSGGEPLTRKDLPELIRAARDLGFYTNLITSGIGLTESKLDAFSEAGLDHIQISFQASDEVLNAALAGNKKAFQQKLTMAKAVKARDYPMVLNFVLHRHNIDQLDKIIELCIELEADDVELATCQFYGWAFLNREGLLPTREQIARAEQVVADYRQKMAASGNLTNLLFVTPDYYEERPKGCMGGWGSIFLSVTPEGTALPCH” here?
**A.** not soluble

**Q.** With “YASRDMDIKRLGKAVMAAAGSPGHFPDVAIPGGVRALPDPQALAELRLPENYEESFEPVPYDGFDMMLTSHGTLDPLGDHVTARSGEERITFDLQTWADHVAESRPGDPAPRPLVHGHPYRVGPYAHGEAMVPRSLAEIRRIIADPRLCEGEFRKESSILSGIGVGAVEGPRGLLVHRYVANEDGVLVDCQILTPTAQNEAWLASMLEASLQQDSDRGVELSVENSIRTANPCLPCSSAPEGHMGVVIEKGN” as the sequence, how does the “soluble on expression in E. coli” value read?
**A.** not soluble

**Q.** Which “soluble on expression in E. coli” value does the source give for “YDKEFGGFGGAPKFPMAMNLSFLLRYGQRYGDGEAVAMATDTLTAMAQGGIWDHLGGGFHRYTVDGRWLVPHFEKMLYDQALCTLALVEAAQVTGNSVFRELAKETCGFVLRELSAPAGGFYSALDADSEGREGACYLWTPAQVRDILGVADGELFCRLYAVTAWGNFEGANVLHLPLAPDAFARDEGVDPLRLQEKIAQWHILLLEARERRPRPFRDEKIITGWNGLMIAALARTFLICGDELLLEGAERAVRRVCIDLRTPAGRLVRSCHRGEASGPGFLEDYAFFIRGLLELHEATLDPRHLALARSLAHDMLRLFGDSGGGLFDTGSDAETILVRGKG” here?
**A.** not soluble

**Q.** For “YIKYFNDKTIDEELERDKRVTWIVEFFANWSNDCQSFAPIYADLSLKYNCTGLNFGKVDVGRYTDVSTRYKVSTSPLTKQLPTLILFQGGKEAMRRPQIDKKGRAVSWTFSEENVIREFNLNEL”, which “soluble on expression in E. coli” value is on record?
**A.** soluble

**Q.** For “YTSLIRRVEHAVDSDGSFETGNEVKLSGVGVIGTDERFERVGETYASYYGYESEELVGKHWSELHPSNEVQHIRTHVIPAVRSGGKWTGQSKGLRADETTFTESKMVTALEDGRMLIAVDEIDDSGLAE”, which “soluble on expression in E. coli” value is on record?
**A.** not soluble
